Reference: PMC8298264, “Function of cofactor Akirin2 in the regulation of gene expression in model human neutrophil-like HL60 cells” (Bioscience Reports, 2021)

B1: sp¦Q16543¦CDC37_HUMAN (protein, UniProt Q16543 1-378, looked up)
Hsp90 co-chaperone Cdc37: MVDYSVWDHIEVSDDEDETHPNIDTASLFRWRHQARVERMEQFQKEKEELDRGCRECKRKVAECQRKLKELEVAEGGKAELERLQAEAQQLRKEERSWEQKLEEMRKKEKSMPWNVDTLSKDGFSKSMVNTKPEKTEEDSEEVREQKHKTFVEKYEKQIKHFGMLRRWDDSQKYLSDNVHLVCEETANYLVIWCIDLEVEEKCALMEQVAHQTIVMQFILELAKSLKVDPRACFRQFFTKIKTADRQYMEGFNDELEAFKERVRGRAKLRIEKAMKEYEEEERKKRLGPGGLDPVEVYESLPEELQKCFDVKDVQMLQDAISKMDPTDAKYHMQRCIDSGLWVPNSKASEAKEGEEAGPGDPLLEAVPKTGDEKDVSV
B2: sp¦O14737¦PDCD5_HUMAN (protein, UniProt O14737 2-125, looked up)
Programmed cell death protein …: ADEELEALRRQRLAELQAKHGDPGDAAQQEAKHREAEMRNSILAQVLDQSARARLSNLALVKPEKTKAVENYLIQMARYGQLSEKVSEQGLIEILKKVSQQTEKTTTVKFNRRKVMDSDEDDDY
B3: sp¦Q9Y244¦POMP_HUMAN (protein, UniProt Q9Y244 1-141, looked up)
Proteasome maturation protein: MNARGLGSELKDSIPVTELSASGPFESHDLLRKGFSCVKNELLPSHPLELSEKNFQLNQDKMNFSTLRNIQGLFAPLKLQMEFKAVQQVQRLPFLSSSNLSLDVLRGNDETIGFEDILNDPSQSEVMGEPHLMVEYKLGLL
B4: sp¦O00154¦BACH_HUMAN (protein, UniProt O00154 1-380, looked up)
Cytosolic acyl coenzyme A …: MKLLARALRLCEFGRQASSRRLVAGQGCVGPRRGCCAPVQVVGPRADLPPCGACITGRIMRPDDANVAGNVHGGTILKMIEEAGAIISTRHCNSQNGERCVAALARVERTDFLSPMCIGEVAHVSAEITYTSKHSVEVQVNVMSENILTGAKKLTNKATLWYVPLSLKNVDKVLEVPPVVYSRQEQEEEGRKRYEAQKLERMETKWRNGDIVQPVLNPEPNTVSYSQSSLIHLVGPSDCTLHGFVHGGVTMKLMDEVAGIVAARHCKTNIVTASVDAINFHDKIRKGCVITISGRMTFTSNKSMEIEVLVDADPVVDSSQKRYRAASAFFTYVSLSQEGRSLPVPQLVPETEDEKKRFEEGKGRYLQMKAKRQGHAEPQP
B5: sp¦P60981¦DEST_HUMAN (protein, UniProt P60981 2-165, looked up)
Destrin: ASGVQVADEVCRIFYDMKVRKCSTPEEIKKRKKAVIFCLSADKKCIIVEEGKEILVGDVGVTITDPFKHFVGMLPEKDCRYALYDASFETKESRKEELMFFLWAPELAPLKSKMIYASSKDAIKKKFQGIKHECQANGPEDLNRACIAEKLGGSLIVAFEGCPV
B6: sp¦P11279¦LAMP1_HUMAN (protein, UniProt P11279 29-417, looked up)
Lysosome-associated membrane …: AMFMVKNGNGTACIMANFSAAFSVNYDTKSGPKNMTFDLPSDATVVLNRSSCGKENTSDPSLVIAFGRGHTLTLNFTRNATRYSVQLMSFVYNLSDTHLFPNASSKEIKTVESITDIRADIDKKYRCVSGTQVHMNNVTVTLHDATIQAYLSNSSFSRGETRCEQDRPSPTTAPPAPPSPSPSPVPKSPSVDKYNVSGTNGTCLLASMGLQLNLTYERKDNTTVTRLLNINPNKTSASGSCGAHLVTLELHSEGTTVLLFQFGMNASSSRFFLQGIQLNTILPDARDPAFKAANGSLRALQATVGNSYKCNAEEHVRVTKAFSVNIFKVWVQAFKVEGGQFGSVEECLLDENSMLIPIAVGGALAGLVLIVLIAYLVGRKRSHAGYQTI
B7: sp¦P27348¦1433T_HUMAN (protein, UniProt P27348 1-245, looked up)
14-3-3 protein theta: MEKTELIQKAKLAEQAERYDDMATCMKAVTEQGAELSNEERNLLSVAYKNVVGGRRSAWRVISSIEQKTDTSDKKLQLIKDYREKVESELRSICTTVLELLDKYLIANATNPESKVFYLKMKGDYFRYLAEVACGDDRKQTIDNSQGAYQEAFDISKKEMQPTHPIRLGLALNFSVFYYEILNNPELACTLAKTAFDEAIAELDTLNEDSYKDSTLIMQLLRDNLTLWTSDSAGEECDAAEGAEN
B8: Myristoylated alanine-rich C-kinase substrate (protein, UniProt P29966 2-332, looked up)
Myristoylated alanine-rich …: GAQFSKTAAKGEAAAERPGEAAVASSPSKANGQENGHVKVNGDASPAAAESGAKEELQANGSAPAADKEEPAAAGSGAASPSAAEKGEPAAAAAPEAGASPVEKEAPAEGEAAEPGSPTAAEGEAASAASSTSSPKAEDGATPSPSNETPKKKKKRFSFKKSFKLSGFSFKKNKKEAGEGGEAEAPAAEGGKDEAAGGAAAAAAEAGAASGEQAAAPGEEAAAGEEGAAGGDPQEAKPQEAAVAPEKPPASDETKAAEEPSKVEEKKAEEAGASAAACEAPSAAGPGAPPEQEAAPAEEPAAAAASSACAAPSQEAQPECSPEAPPAEAAE
B9: Pre-rRNA-processing protein TSR1 homolog (protein, UniProt Q2NL82 1-804, looked up)
Pre-rRNA-processing protein …: MAAHRPGPLKQQNKAHKGGRHRGRGSAQRDGKGRLALKTLSKKVRKELSRVDQRHRASQLRKQKKEAVLAEKRQLGGKDGPPHQVLVVPLHSRISLPEAMQLLQDRDTGTVHLNELGNTQNFMLLCPRLKHRWFFTSARPGDLHVVLDMAKVADTILFLLDPLEGWDSTGDYCLSCLFAQGLPTYTLAVQGISGLPLKKQIDTRKKLSKAVEKRFPHDKLLLLDTQQEAGMLLRQLANQKQQHLAFRDRRAYLFAHAVDFVPSEENNLVGTLKISGYVRGQTLNVNRLLHIVGYGDFQMKQIDAPGDPFPLNPRGIKPQKDPDMAMEICATDAVDDMEEGLKVLMKADPGRQESLQAEVIPDPMEGEQTWPTEEELSEAKDFLKESSKVVKKVPKGTSSYQAEWILDGGSQSGGEGDEYEYDDMEHEDFMEEESQDESSEEEEEYETMTIGESVHDDLYDKKVDEEAEAKMLEKYKQERLEEMFPDEVDTPRDVAARIRFQKYRGLKSFRTSPWDPKENLPQDYARIFQFQNFTNTRKSIFKEVEEKEVEGAEVGWYVTLHVSEVPVSVVECFRQGTPLIAFSLLPHEQKMSVLNMVVRRDPGNTEPVKAKEELIFHCGFRRFRASPLFSQHTAADKHKLQRFLTADMALVATVYAPITFPPASVLLFKQKSNGMHSLIATGHLMSVDPDRMVIKRVVLSGHPFKIFTKMAVVRYMFFNREDVLWFKPVELRTKWGRRGHIKEPLGTHGHMKCSFDGKLKSQDTVLMNLYKRVFPKWTYDPYVPEPVPWLKSEISSTVPQGGME
B10: Inter-alpha-trypsin inhibitor heavy chain H2 (protein, UniProt P19823 55-702, looked up)
Inter-alpha-trypsin inhibitor …: SLPGESEEMMEEVDQVTLYSYKVQSTITSRMATTMIQSKVVNNSPQPQNVVFDVQIPKGAFISNFSMTVDGKTFRSSIKEKTVGRALYAQARAKGKTAGLVRSSALDMENFRTEVNVLPGAKVQFELHYQEVKWRKLGSYEHRIYLQPGRLAKHLEVDVWVIEPQGLRFLHVPDTFEGHFDGVPVISKGQQKAHVSFKPTVAQQRICPNCRETAVDGELVVLYDVKREEKAGELEVFNGYFVHFFAPDNLDPIPKNILFVIDVSGSMWGVKMKQTVEAMKTILDDLRAEDHFSVIDFNQNIRTWRNDLISATKTQVADAKRYIEKIQPSGGTNINEALLRAIFILNEANNLGLLDPNSVSLIILVSDGDPTVGELKLSKIQKNVKENIQDNISLFSLGMGFDVDYDFLKRLSNENHGIAQRIYGNQDTSSQLKKFYNQVSTPLLRNVQFNYPHTSVTDVTQNNFHNYFGGSEIVVAGKFDPAKLDQIESVITATSANTQLVLETLAQMDDLQDFLSKDKHADPDFTRKLWAYLTINQLLAERSLAPTAAAKRRITRSILQMSLDHHIVTPLTSLVIENEAGDERMLADAPPQDPSCCSGALYYGSKVVPDSTPSWANPSPTPVISMLAQGSQVLESTPPPHVMRVEND

system: human HL60 cells; test: SWATH-MS proteomics, differential protein representation, akirin2 KO vs WT HL60 cells; type: cell-based; conditions: Over-represented in KO; KO vs WT HL60 cells
Protocol: Total proteins were extracted from WT and akirin2 KO HL60 cells using the AllPrep DNA/RNA/Protein Mini Kit (Qiagen) and protein concentration was determined using the BCA Protein Assay with BSA (Sigma–Aldrich) as standard. Protein extracts (150 µg per sample, n=3 biological replicates) from each WT and KO cells were trypsin digested using the FASP Protein Digestion Kit (Expedeon Ltd., Abcam, Cambridge, U.K.) and sequencing grade trypsin (Promega, Madison, WI, U.S.A.) following manufacturer’s recommendations. The resulting peptides were finally desalted on to OMIX Pipette tips C18 (Agilent Technologies, Santa Clara, CA, U.S.A.), dried down and stored at −20 °C until mass spectrometry analysis. […] Three micrograms of each protein digest from the three biological replicates of WT and akirin2 KO HL60 cells were used for the generation of the reference spectral ion library as part of the SWATH-MS analysis.
Peptides were eluted in a 120-min gradient from 5 to 30% solvent B in solvent A followed by 15-min gradient from 30 to 60% solvent B in solvent A (solvent A: 0.1% formic acid in water, solvent B: 0.1% formic acid in acetonitrile) and directly injected into the mass spectrometer for analysis. For IDA experiments, the mass spectrometer was set to scanning full spectra (350–1400 m/z) using 250 ms accumulation time per spectrum, followed by up to 50 MS/MS scans (100–1500 m/z). Candidate ions with a charge state between +2 and +5 counts per second above a minimum threshold of 100 were isolated for fragmentation. One MS/MS spectrum was collected for 100 ms, before adding those precursor ions to the exclusion list for 15 s (mass spectrometer operated by Analyst TF 1.6, AB Sciex). Dynamic background subtraction was turned off. MS/MS analyses were recorded in high-sensitivity mode with rolling collision energy on and a collision energy spread of 5. For SWATH quantitative analysis, six independent samples (three replicates from WT and akirin2 KO HL60 cells, 5 µg each) were subjected to the cyclic DIA of mass spectra using the SWATH variable windows calculator (V 1.0, AB Sciex) and the SWATH acquisition method editor (AB Sciex), similar to established methods. […] For these experiments, a 50-ms survey scan (350–1400 m/z) was acquired at the beginning of each cycle, and SWATH–MS/MS spectra were collected from 100–1500 m/z for 70 ms at high-sensitivity mode, resulting in a cycle time of 3.6 s. Collision energy for each window was determined according to the calculation for a charge +2 ion-centered upon the window with a collision energy spread of 15. To create a spectral library of all the detectable peptides in the samples, the IDA MS raw files were combined and subjected to database search in unison using ProteinPilot software v. 5.0.1 (AB Sciex) with the Paragon algorithm. […] The detected protein threshold was set at 0.05. An independent false discovery rate (FDR) analysis, using the target–decoy approach provided by Protein Pilot (AB Sciex; https://sciex.com/products/software/proteinpilot-software), was used to assess the quality of identifications. Positive identifications were considered when identified proteins reached 1% of global FDR. […] Global normalization was performed according to the Total Area Sums (TAS) of all detected proteins in the samples. […] Heatmaps were prepared using the Heatmapper (http://www.heatmapper.ca/expression/) with average linkage and Euclidean distance measurement method.

Row | Molecule | Fold Change | Log (Fold Change)
1 | B1 | 1.314 | 0.1187
2 | B2 | 1.307 | 0.1162
3 | B3 | 1.341 | 0.1275
4 | B4 | 1.305 | 0.1157
5 | B5 | 1.321 | 0.1208
6 | B6 | 1.301 | 0.1143
7 | B7 | 1.296 | 0.1126

same assay, conditions: SWATH-MS, akirin2 KO vs WT HL60 cells; over-represented in KO

Row | Molecule | Fold Change | Log (Fold Change)
8 | B8 | 3.833 | 0.5836
9 | B9 | 3.379 | 0.5288
10 | B10 | 3.859 | 0.5865
